Measurements taken from patent EP4696312A1 (IMBIORAY (HANGZHOU) BIOMEDICINE CO., LTD., dated 2024).
Where a chain is given by its changes, count along the chain named.

Columns and labels:
Rhesus macaque Trop2 = molecular target: T1, Rhesus macaque Trop2 (rhesus macaque, UniProt A0A5F8AGB8 27-274); test: BLI (OctetR8), Trop2 on His-K probes, antibody in solution
T1 construct: Recombinant protein loaded onto His-K biosensors
T1 sequence: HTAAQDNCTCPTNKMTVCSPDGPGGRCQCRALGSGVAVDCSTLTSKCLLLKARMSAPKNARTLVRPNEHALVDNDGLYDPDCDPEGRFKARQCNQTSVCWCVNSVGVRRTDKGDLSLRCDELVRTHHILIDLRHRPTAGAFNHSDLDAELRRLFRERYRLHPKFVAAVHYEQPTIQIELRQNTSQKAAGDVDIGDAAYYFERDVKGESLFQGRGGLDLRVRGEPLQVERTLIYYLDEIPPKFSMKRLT

Human Trop2 = molecular target: T2, Human Trop2 (human, UniProt P09758 27-274); test: as above
T2 construct: Recombinant protein loaded onto His-K biosensors; also called TACSTD2; EGP-1
T2 sequence (looked up): T1 sequence with V36M, N67S, V204I

- koff (Rhesus macaque Trop2): < 1e-07 s⁻¹
- kon (Rhesus macaque Trop2): 569000 M⁻¹ s⁻¹
- Kd (Human Trop2): 22.6 nM
- koff (Human Trop2): 0.0127 s⁻¹
- kon (Human Trop2): 564000 M⁻¹ s⁻¹
B1: L2-conjugated antibody (anti-Trop2 monoclonal antibody conjugated to L2 linker) (antibody, human IgG1, V domains shown)
VH: EVQLVESGGGLVQPGGSLRLSCAASGFTFNNYAMSWVRQAPGKGLEWVSTISSDGTYTYYADSVKGRFTISRDNSKNTLYLQMNSLRAEDTAVYYCARHPPSYYYAFDYWGQGTTLTVSS
VL: EIVLTQSPGTLSLSPGERATLSCRASESVDSYGNSFIHWYQQKPGQAPRLLIYLASNLESGIPDRFSGSGSGTDFTLTISRLEPEDFAVYYCQQNNEDLWTFGGGTKLEIKA
modifications: L2 linker coupled to lysine residue(s); 1-4 (preferably 1-2) L2 linkers per antibody; chain and positions not stated; L2 linker (dibenzoazacyclooctyne-glutaryl-amino tetraethylene glycol-pentafluorophenyl acetylpiperidinate) coupled to lysine residue(s); 1-4 (preferably 1-2) L2 linkers per antibody; chain and positions not stated
notes: Each chain is the variable region followed by the constant region; also called IB12 (name of the expression plasmid)
